Experiments:
[1] = molecular target: human thyroid-stimulating hormone receptor (TSHR) (human) (UniProt P16473); assay: flow cytometry (FACS), 293 cells overexpressing human TSHR; negative control
[2] = molecular target: mouse thyroid-stimulating hormone receptor (TSHR) (mouse) (UniProt P47750); assay: flow cytometry (FACS), 293 cells overexpressing mouse TSHR; negative control
[3] = molecular target: monkey thyroid-stimulating hormone receptor (TSHR) (monkey); assay: flow cytometry (FACS), 293 cells overexpressing monkey TSHR; negative control
monkey thyroid-stimulating hormone receptor (TSHR) (monkey), sequence (A0A2K5 entry or part of it limits assumed, form in doubt): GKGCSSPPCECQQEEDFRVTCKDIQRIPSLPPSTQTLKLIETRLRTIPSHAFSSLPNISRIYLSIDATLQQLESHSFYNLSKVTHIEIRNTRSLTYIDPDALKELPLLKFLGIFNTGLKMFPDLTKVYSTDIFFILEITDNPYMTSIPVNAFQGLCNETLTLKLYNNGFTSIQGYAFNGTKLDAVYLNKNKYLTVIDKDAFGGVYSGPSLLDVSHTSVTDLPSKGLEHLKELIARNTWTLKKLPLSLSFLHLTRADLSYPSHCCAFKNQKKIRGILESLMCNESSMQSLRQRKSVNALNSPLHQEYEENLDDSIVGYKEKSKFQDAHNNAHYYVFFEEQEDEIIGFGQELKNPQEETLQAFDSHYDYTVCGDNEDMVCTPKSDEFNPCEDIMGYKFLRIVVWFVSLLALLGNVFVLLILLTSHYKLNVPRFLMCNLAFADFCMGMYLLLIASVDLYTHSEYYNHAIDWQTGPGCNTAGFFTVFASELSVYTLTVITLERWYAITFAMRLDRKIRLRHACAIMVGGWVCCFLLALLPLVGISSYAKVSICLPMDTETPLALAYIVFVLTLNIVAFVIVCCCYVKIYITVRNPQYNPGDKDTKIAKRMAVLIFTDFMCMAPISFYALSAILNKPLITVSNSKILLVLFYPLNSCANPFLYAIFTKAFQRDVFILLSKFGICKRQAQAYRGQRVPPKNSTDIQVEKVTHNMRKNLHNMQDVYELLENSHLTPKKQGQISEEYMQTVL

human thyroid-stimulating hormone receptor (TSHR) (human), sequence (P16473 21-764): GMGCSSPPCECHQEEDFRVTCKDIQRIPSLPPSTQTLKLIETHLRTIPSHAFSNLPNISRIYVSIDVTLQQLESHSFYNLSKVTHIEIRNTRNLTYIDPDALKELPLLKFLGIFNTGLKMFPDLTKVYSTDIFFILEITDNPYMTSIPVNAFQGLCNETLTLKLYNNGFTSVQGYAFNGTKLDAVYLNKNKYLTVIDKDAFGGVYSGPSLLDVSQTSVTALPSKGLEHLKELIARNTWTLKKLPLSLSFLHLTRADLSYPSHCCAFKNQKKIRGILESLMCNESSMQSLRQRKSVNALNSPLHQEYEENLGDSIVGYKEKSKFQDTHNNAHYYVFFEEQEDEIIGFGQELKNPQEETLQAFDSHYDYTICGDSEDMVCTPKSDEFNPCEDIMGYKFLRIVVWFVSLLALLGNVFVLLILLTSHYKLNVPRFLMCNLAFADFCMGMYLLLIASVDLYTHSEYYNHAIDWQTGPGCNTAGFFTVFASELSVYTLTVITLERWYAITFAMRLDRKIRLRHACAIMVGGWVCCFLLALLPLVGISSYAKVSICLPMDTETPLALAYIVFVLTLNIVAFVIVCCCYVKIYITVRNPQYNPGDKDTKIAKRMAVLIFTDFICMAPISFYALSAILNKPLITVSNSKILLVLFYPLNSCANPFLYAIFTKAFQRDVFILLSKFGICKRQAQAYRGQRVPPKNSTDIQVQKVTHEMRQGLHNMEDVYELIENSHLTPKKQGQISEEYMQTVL
mouse thyroid-stimulating hormone receptor (TSHR) (mouse), sequence (P47750 22-764): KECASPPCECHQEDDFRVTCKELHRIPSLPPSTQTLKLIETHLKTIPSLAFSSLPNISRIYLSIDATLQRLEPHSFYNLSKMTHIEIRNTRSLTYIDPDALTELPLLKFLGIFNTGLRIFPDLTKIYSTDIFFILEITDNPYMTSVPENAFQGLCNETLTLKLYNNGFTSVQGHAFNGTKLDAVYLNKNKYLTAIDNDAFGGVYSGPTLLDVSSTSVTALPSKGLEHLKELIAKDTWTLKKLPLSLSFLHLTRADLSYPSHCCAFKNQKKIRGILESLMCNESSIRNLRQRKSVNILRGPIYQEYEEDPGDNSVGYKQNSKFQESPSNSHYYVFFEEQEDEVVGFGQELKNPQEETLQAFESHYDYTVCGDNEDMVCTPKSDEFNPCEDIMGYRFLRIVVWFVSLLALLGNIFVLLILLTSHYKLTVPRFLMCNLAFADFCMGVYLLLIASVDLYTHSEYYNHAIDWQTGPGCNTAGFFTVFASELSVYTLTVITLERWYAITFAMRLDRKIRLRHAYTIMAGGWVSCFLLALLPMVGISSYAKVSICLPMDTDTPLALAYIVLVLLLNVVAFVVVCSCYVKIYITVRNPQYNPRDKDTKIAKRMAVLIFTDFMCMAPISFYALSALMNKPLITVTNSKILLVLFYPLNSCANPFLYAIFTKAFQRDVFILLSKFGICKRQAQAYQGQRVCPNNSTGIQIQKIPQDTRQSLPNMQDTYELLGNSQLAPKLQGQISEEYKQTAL

Row | Substance | Max MFI [1] | Max MFI [2] | Max MFI [3]
1 | hIgG1 negative control (Biointron B117901) (antibody) | 3590 | 2130 | 3560
2 | hIgG4 negative control (Biointron B107804) (antibody) | 1690 | 1530 | 1770
